Results as given in the supplement of paper PMC10724198.

Legend:
Saccharomyces cerevisiae [1] = experiment: protein stability index of tFT-peptide fusion in deletion strain of DAS1 (PSI (0-1 scale)); higher = more stable (slower turnover)
Procedure: (§1)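 MPS profiling in S. cerevisiae of two library types built from selected 12-aa C-degron peptides (IN1, IN2, LN1, LN3, VN2, R1-R5, W1-W3, Atg1 and Rpa12 C-termini): saturation mutagenesis libraries and C-terminal +1 capping libraries (13 aa). Each peptide is fused to the C-terminus of a sfGFP-mCherry timer, after a GGGS linker. Cells are FACS-sorted into 8 mCherry/sfGFP bins and sequenced. PSI runs from 0 (unstable) to 1 (stable), measured once in wild type and in the das1Δ or doa10Δ background.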

Saccharomyces cerevisiae [2] = experiment: protein stability index of tFT-peptide fusion in wild type (PSI (0-1 scale)); higher = more stable (slower turnover); settings: genetic background: wild type
Procedure: as §1
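Wherever protein stability index of tFT-peptide fusion in deletion strain of DAS1 is given: PSI is a weighted mean of each variant's read distribution over the sorted stability bins, computed only for variants having over 10 reads in total.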
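Wherever protein stability index of tFT-peptide fusion in wild type is given: PSI derived as read-weighted mean over the 8 sorting bins, only variants exceeding 10 total reads kept, mCherry placed adjacent to the peptide and sfGFP distal.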

Row | Sequence | protein stability index (Saccharomyces cerevisiae [1]) | protein stability index (Saccharomyces cerevisiae [2])
1 | CTSCWYKFRTNN | 0.672 | 0.168
2 | FSMRWTFAYWVN | 0.39 | 0.047
3 | RLHQPLPVQFLN | 0.581 | 0.06
4 | IDKRNHLIKLLN | 0.584 | 0.143
5 | PSLAASFLRVVG | 0.642 | 0.641
6 | PDKRNHLIKYLN | 0.638 | 0.0757
7 | ARWRCGLWRGAS | 0.695 | 0.574
8 | PDKRNHLIKLLQ | 0.605 | 0.205
9 | FSMRFTFRYWVN | 0.501 | 0.0475
10 | PDKRNHYIKLLN | 0.683 | 0.0965
11 | VRGAVGGWSLVG | 0.689 | 0.633
12 | LKILRQKMNIQN | 0.686 | 0.214
13 | VRGWVGGWRLVG | 0.681 | 0.134
14 | LVNYLSCVACIN | 0.259 | 0.0691
15 | RLNQPLPVQFLN | 0.605 | 0.0569
16 | KKHKKGIKQKIN | 0.588 | 0.0645
17 | LVIYLSCVACIN | 0.0377 | 0.0156
18 | RLIQPLPVQFLC | 0.566 | 0.0371
19 | ESLAASFWRVVG | 0.689 | 0.136
20 | VRTAVGGWRLVG | 0.678 | 0.137
21 | GSMRWTFRYWVN | 0.677 | 0.0781
22 | NSMRWTFRYWVN | 0.598 | 0.0828
23 | RLIQPLPVHFLN | 0.587 | 0.0347
24 | KKHKKDQKQKIN | 0.606 | 0.0671

Row | Sequence | protein stability index (Saccharomyces cerevisiae [1]) | protein stability index (Saccharomyces cerevisiae [2])
25 | RLIQPQPVQFLN | 0.593 | 0.0694
26 | PSLAASFWRVTG | 0.687 | 0.142
27 | LKILRQKMNSQN | 0.672 | 0.213
28 | FSMAWTFRYWVN | 0.456 | 0.0458
29 | CTSCGYKFWTNN | 0.75 | 0.299
30 | FSMRWTFRAWVN | 0.425 | 0.104
31 | LVVYLSCVWCIN | 0.263 | 0.0553
32 | LKNLRQKMNHQN | 0.678 | 0.208
33 | PSLAASFWIVVG | 0.421 | 0.418
34 | FSMRWTFRQWVN | 0.427 | 0.109
35 | VRGAVGGFRLVG | 0.677 | 0.661
36 | SKILRQKMNHQN | 0.677 | 0.153
37 | CTSCGYKFRTAN | 0.673 | 0.27
38 | PDKRNILIKLLN | 0.598 | 0.165
39 | LVVYLSCHACIN | 0.0466 | 0.0126
40 | LVVYLSFVACIN | 0.116 | 0.0293
41 | ARWRVGLWRGES | 0.695 | 0.681
42 | LVVYLSCVACFN | 0.076 | 0.0281
43 | KKNKKGQKQKIN | 0.598 | 0.141
44 | PSTAASFWRVVG | 0.701 | 0.135
45 | PDQRNHLIKLLN | 0.585 | 0.136
46 | KKHCKGQKQKIN | 0.637 | 0.13
47 | CTSCVYKFRTNN | 0.675 | 0.164
48 | KWHKKGQKQKIN | 0.562 | 0.108

Row | Sequence | protein stability index (Saccharomyces cerevisiae [1]) | protein stability index (Saccharomyces cerevisiae [2])
49 | KVHKKGQKQKIN | 0.64 | 0.0686
50 | LVVYLSDVACIN | 0.495 | 0.458
51 | TSLAASFWRVVG | 0.688 | 0.125
52 | RLIQDLPVQFLN | 0.588 | 0.14
53 | KKHKKGNKQKIN | 0.601 | 0.0792
54 | ARWRNGLWRGAS | 0.701 | 0.658
55 | ARWRVGLWRGAP | 0.681 | 0.662
56 | KKHKKGQKQFIN | 0.558 | 0.209
57 | KKHKKGQKQHIN | 0.648 | 0.435
58 | RLIQPLPVKFLN | 0.584 | 0.184
59 | CFSCGYKFRTNN | 0.682 | 0.188
60 | RLIQHLPVQFLN | 0.636 | 0.0489
61 | CTSCGYKARTNN | 0.686 | 0.623
62 | PDKRNHLCKLLN | 0.665 | 0.131
63 | VRNAVGGWRLVG | 0.674 | 0.137
64 | ARWRVGLWRGVS | 0.689 | 0.122
65 | LVDYLSCVACIN | 0.354 | 0.21
66 | PFLAASFWRVVG | 0.693 | 0.154
67 | KKHKKGQKLKIN | 0.562 | 0.114
68 | AKHKKGQKQKIN | 0.829 | 0.11
69 | PSLAASRWRVVG | 0.682 | 0.156
70 | LKILRQKMNHQNL | 0.697 | 0.672
71 | LKILRQKMEHQN | 0.671 | 0.404
72 | CTFCGYKFRTNN | 0.719 | 0.253

Row | Sequence | protein stability index (Saccharomyces cerevisiae [1]) | protein stability index (Saccharomyces cerevisiae [2])
73 | ARWRVGLWRGASA | 0.672 | 0.665
74 | VKILRQKMNHQN | 0.67 | 0.174
75 | LVFYLSCVACIN | 0.0573 | 0.016
76 | PDDRNHLIKLLN | 0.594 | 0.157
77 | VRGAVGGWTLVG | 0.664 | 0.49
78 | VRGALGGWRLVG | 0.669 | 0.171
79 | PDGRNHLIKLLN | 0.601 | 0.161
80 | KKHKIGQKQKIN | 0.563 | 0.142
81 | LVVYLSCVACYN | 0.0338 | 0.0154
82 | LVVYLSCRACIN | 0.0311 | 0.0228
83 | KKHKKGQKQWIN | 0.657 | 0.553
84 | VRGAVGNWRLVG | 0.69 | 0.14
85 | PDKRFHLIKLLN | 0.672 | 0.113
86 | LKILRQKMNHEN | 0.671 | 0.237
87 | PSLAASFFRVVG | 0.654 | 0.609
88 | FSMRWTSRYWVN | 0.598 | 0.105
89 | LKILRQKMNHQNE | 0.656 | 0.652
90 | CTSCGYCFRTNN | 0.7 | 0.261
91 | FSMRWTFRYFVN | 0.631 | 0.0378
92 | FSMRITFRYWVN | 0.336 | 0.0393
93 | LKILKQKMNHQN | 0.68 | 0.222
94 | PSLAASFWRVVK | 0.688 | 0.661
95 | VRQAVGGWRLVG | 0.684 | 0.132
96 | ARWRVILWRGAS | 0.627 | 0.496

Row | Sequence | protein stability index (Saccharomyces cerevisiae [1]) | protein stability index (Saccharomyces cerevisiae [2])
97 | ARWRVGLWWGAS | 0.679 | 0.556
98 | VLIQPLPVQFLN | 0.603 | 0.0725
99 | LVVELSCVACIN | 0.0632 | 0.0174
100 | LKILSQKMNHQN | 0.681 | 0.232
101 | VRGAVGGWRIVG | 0.678 | 0.325
102 | ARWRVGLWRGAT | 0.683 | 0.447
103 | RLLQPLPVQFLN | 0.595 | 0.037
104 | KKHKKGVKQKIN | 0.743 | 0.128
105 | PSLAASFWRVRG | 0.683 | 0.666
106 | PSLAASFCRVVG | 0.645 | 0.618
107 | KKHKKGQIQKIN | 0.569 | 0.109
108 | LGILRQKMNHQN | 0.685 | 0.141
109 | LVVYLSCVAIIN | 0.0381 | 0.0151
110 | VRGAVGEWRLVG | 0.696 | 0.182
111 | MSLAASFWRVVG | 0.67 | 0.124
112 | YLIQPLPVQFLN | 0.624 | 0.0777
113 | LKILRQKMNHDN | 0.671 | 0.39
114 | FSMRRTFRYWVN | 0.616 | 0.102
115 | PSLTASFWRVVG | 0.693 | 0.156
116 | CKILRQKMNHQN | 0.675 | 0.165
117 | LVVYLSCVACIM | 0.022 | 0.0115
